Test results as given in US5817484A, “Thermoresistant α-1-antitrypsin mutein” (priority 1993, dated 1998).

Experiments:
elastase [1] = experiment: Association constant to elastase (Beatty's method); format: biochemical
Protocol: (§1) Specifically, the AT's activity to inhibit elastase was evaluated by: mixing elastase and AT extract to react them, adding thereto a substrate (prepared by dissolving succinyl-alanyl-alanyl-alanyl-para-nitroanilide (SIGMA S4760) in dimethyl sulfoxide) and measuring the change of absorbency at 410 nm to determine the residual elastase activity. The thermal stability of AT was estimated by determining its activity of inhibiting elastase, using AT treated at 55° C. in case cell extract is used or at 57° to 58° C. in case a purified AT is used. As controls, a wild-type AT produced in E. coli or yeast cell and natural AT isolated and purified from human plasma were used.
From the reaction mixture containing the same concentrations (8 nM) of elastase and AT, samples of the mixture were taken every minute for 10 mins. 1 mM succinyl-alanyl-alanyl-alanyl-p-nitroanilide (SIGMAS4760) was added as a substrate to each sample. The elastase activity of each sample was determined by measuring the absorbency at 410 nm, and then the association constant was calculated from the plot slope of reciprocal of elastase concentration vs time.

elastase [2] = experiment: Thermal inactivation of purified AT at 57-58° C., remaining elastase inhibiting activity; format: physicochemical; conditions: for half-life: purified AT
Protocol: as §1, with “The activity of AT was measured by evaluating the inhibition by AT of the elastase's activity to degrade peptides in accordance with the procedure described by Travis & Johnson in Methods in Enzymol., 80, 754 (1981). Specifically,” for “Specifically,”
The elastase inhibiting activity of AT was evaluated by using a modified method described by Travis et al. (Travis & Jonhson, Methods in Enzymol. 80, 754 (1981)). As a reaction buffer, 50 mM Tris (pH 8.0) containing 50 mM NaCl was used, and 15 mM succinyl-alanyl-alanyl-alanyl-paranitro-anilide (SIGMA S4760) dissolved in dimethyl-sulfoxide was used as a substrate for elastase. An enzyme solution was prepared by dissolving elastase to the concentration of 0.3 μM in the reaction buffer solution containing 50% glycerol.
(§2) The elastase inhibiting activity of AT was determined as follows: 10 μl of the enzyme solution, 10 to 50 μl of the AT extracts and the reaction buffer solution were mixed to make the final volume of 60 μl, and then reacted for 10 mins. After 430 μl of the reaction buffer solution and 10 μl of the substrate were added thereto, the change of absorbency at 410 nm was immediately measured for 3 mins.
For the comparison of their thermal stability, various kinds of AT muteins were incubated at 57° C., from which samples were taken every minute. Then the remaining activity of AT muteins was determined in the same manner as described in Example 1 above and their half-life and thermal inactivation rate were calculated from the slope of the plot of a logalithmic value of the remaining activity vs time (see FIG. 3).

elastase [3] = experiment: Thermal stability at 55° C. of AT expressed in E. coli, elastase inhibiting activity measured every minute; format: physicochemical; conditions: FIG. 8
Protocol: as §1, with “The activity of AT was measured by evaluating the inhibition by AT of the elastase's activity to degrade peptides in accordance with the procedure described by Travis & Johnson in Methods in Enzymol., 80, 754 (1981). Specifically,” for “Specifically,”, “As controls, a wild-type AT produced in E. coli or yeast cell and natural AT isolated and purified from human plasma were used.” left out
The elastase inhibiting activity of AT was evaluated by using a modified method described by Travis et al. (Travis & Jonhson, Methods in Enzymol. 80, 754 (1981)). […]
as §2

[4] = Table II, ATs produced in yeast and controls

Human plasma AT: natural α-1-antitrypsin from human plasma (A9204), purified over Affi-Gel Blue and mono-Q columns
association constant (elastase [1]; Table I, 8 nM elastase and 8 nM AT, purified AT): 1.7e+06 M⁻¹ s⁻¹ | association constant (elastase [1]; [4]): 1.7e+06 M⁻¹ s⁻¹ | half-life (elastase [2]; at 57° C.): 49.7 min | half-life (elastase [2]; at 58° C.): 35.2 min

multiple mutant AT wherein the 51st residue is leucine and the 374th is isoleucine: α-1-antitrypsin with two replacements: 51st leucine and 374th isoleucine, expressed in E. coli
thermoresistance, times higher than the single mutant ATs (elastase [3]): at least 300 times

wild-type yeast AT (phenylalanine): wild-type α-1-antitrypsin produced in Saccharomyces diastaticus (pGAT11)
association constant (elastase [1]; [4]): 1.5e+06 M⁻¹ s⁻¹ | thermal resistance, times higher than that of the wild-type recombinant AT expressed in E. coli (elastase [2]; at 58° C.): 5.3 times | thermal resistance (in words) (elastase [2]; at 58° C., produced in yeast): a lower thermoresistance than that of the human plasma AT | half-life (elastase [2]; at 58° C.): 6.9 min
